Source: patent US20240166737A1

Columns and labels:
recombinant CD3 = recombinant CD3 (UniProt P07766); assay: SPR
[1] = molecular target: CD3 epsilon on human T-cells (human) (UniProt P07766); assay: T cell binding
Sequence of CD3 epsilon on human T-cells (human) (P07766 23-207 limits assumed): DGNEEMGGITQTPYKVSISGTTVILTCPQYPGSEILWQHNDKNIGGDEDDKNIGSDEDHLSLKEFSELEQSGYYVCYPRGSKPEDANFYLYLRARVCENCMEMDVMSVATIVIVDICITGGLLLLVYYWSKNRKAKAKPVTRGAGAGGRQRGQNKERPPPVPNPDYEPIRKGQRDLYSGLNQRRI

Sequence of recombinant CD3 (P07766 23-126): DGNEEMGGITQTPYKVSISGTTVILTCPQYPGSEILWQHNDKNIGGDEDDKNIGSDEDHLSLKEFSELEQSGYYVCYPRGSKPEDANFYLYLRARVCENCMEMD

B1: CD3B450-LH-ScFv (scFv, V domains shown, not shown: small tags and cut ends)
VH: QVQLQQSGPGLVKPSQTLSLTCAISGDSVFNNNAAWSWIRQSPSRGLEWLGRTYYRSKWLYDYAVSVKSRITINPDTSKNQFSLQLNSVTPEDTAVYYCARGYSSSFDYWGQGTLVTVSS
VL: QSALTQPASVSGSPGQSITISCTGTSSNIGTYKFVSWYQQHPGKAPKVMIYEVSKRPSGVSNRFSGSKSGNTASLTISGLQAEDEADYYCVSYAGSGTLLFGGGTKLTVL
- Kd (recombinant CD3): 50 to 100 nM
- EC50 [1]: > 300 nM
